Columns and labels:
[1] = target: recombinant human interferon α2b (human) (UniProt P01563); experiment: far-Western, overlay or dot blot
[2] = target: recombinant human interferon α2b (human) (UniProt P01563); experiment: lateral-flow immunochromatographic strip
[3] = target: recombinant human interferon α2b (human) (UniProt P01563); experiment: BLI

- limit of detection [1]: 31.2 ng
- limit of detection [2]: 1 µg/mL
- Kd [3]: 2.06 nM
B1: nanobody I22 (His-labeled, purified) (VHH)
VHH: QVQLVESGGGLVQPGGSLRLSCVASGFTFDSATMSWHRQAPGREREFVAMTSGGGMINYANSVKGRFTISRDNAKNTVYLQMDSLKPEDTAVYYCHRLGTFHWGQGTQVTVSS

Reference: article PMC9091920 (Journal of Pharmaceutical Analysis, 2021)
